# Target: the molecule itself
# Experiment: SEC; Superose 12 10/300 GL, 4°C, 20 mM Tris-HCl pH 6.9, 100 mM NaCl, 0.1 mM EDTA; protein applied at 2.5 mg/ml; calibrated with standard proteins
Protein,stoichiometry N,binding result
"His-tagged wild type RsbP (natural protein, Bacillus subtilis, UniProt O07014 1-403, looked up, RsbP serine phosphatase, Bacillus subtilis; called full-length in the results and discussion; predicted monomer mass of the His-tagged protein 48,325; also called WT) MDKQLNDAPCGFLALSEEGSIIAANRTLIKILDYEPEQVIGQHMNMMLTIPAQLFCQLYFFPLLKLEHHIEEIYISLKARDGEEIPVLINAIARHDSGASVFDCVLIPMRKRNEYENELLIARNEAQEALLAKQKANAELEIALETLKAKQEELLEINKQNQQFKLNTKRELELARKIQKNSLTEPIVNDQVQIDSYYNASSELSGDLYGYYQIDEHRYGIIILDVMGHGISSALITMSLHPLFQRQITQGLSPVKVMKELDRHLHSLFQNDEEARHYCTAIYLEIDIARQRIDYVNAGHPPALWQDDSGTQHLLHATSPPIGMFEDLEFQSSSLSYTEDGRLLLYTDGVMDPTASCYLFDLLKDHPDSPIADLKEKILTSLQHQKEAHHKSDDECFILVDVK",4,–
"His-tagged RsbP-F55A (natural protein, Bacillus subtilis, UniProt O07014 1-403, looked up, RsbP serine phosphatase, Bacillus subtilis, with F55A) MDKQLNDAPCGFLALSEEGSIIAANRTLIKILDYEPEQVIGQHMNMMLTIPAQLACQLYFFPLLKLEHHIEEIYISLKARDGEEIPVLINAIARHDSGASVFDCVLIPMRKRNEYENELLIARNEAQEALLAKQKANAELEIALETLKAKQEELLEINKQNQQFKLNTKRELELARKIQKNSLTEPIVNDQVQIDSYYNASSELSGDLYGYYQIDEHRYGIIILDVMGHGISSALITMSLHPLFQRQITQGLSPVKVMKELDRHLHSLFQNDEEARHYCTAIYLEIDIARQRIDYVNAGHPPALWQDDSGTQHLLHATSPPIGMFEDLEFQSSSLSYTEDGRLLLYTDGVMDPTASCYLFDLLKDHPDSPIADLKEKILTSLQHQKEAHHKSDDECFILVDVK",–,binds

# Source: PMC3183031, “An α/β Hydrolase and Associated Per-ARNT-Sim Domain Comprise a Bipartite Sensing Module Coupled with Diverse Output Domains” (PLoS ONE, 2011)
